Source: article PMC5625035, “The Rev1 interacting region (RIR) motif in the scaffold protein XRCC1 mediates a low-affinity interaction with polynucleotide kinase/phosphatase (PNKP) during DNA single-strand break repair” (The Journal of Biological Chemistry, 2017)

B1: acrylodan-labeled PNKP (PNKP^WFX402-AC) (enzyme)
chain: not shown
modifications: acrylodan (6-acryloyl-2-dimethylaminonaphthalene, AC) label, site not stated
B2: His-XRCC1^161–406 (domain or fragment)
chain: PSQKVTVTKLGQFRVKEEDESANSLRPGALFFSRINKTSPVTASDPAGPSYAAATLQASSAASSASPVSRAIGSTSKPQESPKGKRKLDLNQEEKKTPSKPPAQLSPSVPKRPKLPAPTRTPATAPVPARAQGAVTGKPRGEGTEPRRPRAGPEELGKILQGVVVVLSGFQNPFRSELRDKALELGAKYRPDWTRDSTHLICAFANTPKYSQVLGLGGRIVRKEWVLDCHRMRRRLPSQRYLMAGP

Experiments:
[1] = biological target: T1, full-length XRCC1-His (recombinant, from E. coli) (human, UniProt P18887 1-633); assay: other fluorescence titration; quenching of acrylodan fluorescence of PNKP-AC (excitation 380 nm, emission 485-490 nm) by added XRCC1 protein; 25 °C; PNKP-AC 20 nM with full-length XRCC1-His, 80 nM with His-XRCC1^161–406 and in the emission scans with His-XRCC1^FFF; nonlinear regression, unimodal binding; settings: both partners purified
T1 construct: XRCC1, human, full length, not phosphorylated (made in E. coli); also called wild-type XRCC1; X-ray repair cross-complementing 1; source: E. coli (pET16b-XH), purified
T1 sequence (P18887 whole entry): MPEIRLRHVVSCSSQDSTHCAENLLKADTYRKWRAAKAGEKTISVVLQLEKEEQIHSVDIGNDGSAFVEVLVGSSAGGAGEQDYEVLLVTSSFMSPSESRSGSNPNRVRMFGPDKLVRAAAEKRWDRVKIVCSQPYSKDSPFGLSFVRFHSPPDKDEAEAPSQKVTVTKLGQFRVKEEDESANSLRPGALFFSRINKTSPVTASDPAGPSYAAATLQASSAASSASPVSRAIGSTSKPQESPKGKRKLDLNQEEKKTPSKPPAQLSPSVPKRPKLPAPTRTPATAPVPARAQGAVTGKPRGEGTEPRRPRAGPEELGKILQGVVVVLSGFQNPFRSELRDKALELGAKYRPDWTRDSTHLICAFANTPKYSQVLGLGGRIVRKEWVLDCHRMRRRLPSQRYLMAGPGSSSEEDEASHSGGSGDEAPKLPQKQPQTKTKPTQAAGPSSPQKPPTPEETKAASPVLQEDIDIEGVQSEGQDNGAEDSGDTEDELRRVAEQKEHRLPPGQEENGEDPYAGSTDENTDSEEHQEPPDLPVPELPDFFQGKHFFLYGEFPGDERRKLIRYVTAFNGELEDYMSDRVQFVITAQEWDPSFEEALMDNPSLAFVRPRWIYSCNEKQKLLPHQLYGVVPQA

[2] = biological target: B1; assay: as above; settings: both partners purified

Row | Kd [1] | Kd [2] | Binder
1 | ~30 nM |  | B1
2 |  | ~95 nM | B2
